Values belong to the molecule of their own block, whether it stands above or below them.
Tests used:
Format in all cases: biochemical
human G34 protein [1] = molecular target: T1, human G34 protein (Homo sapiens, UniProt Q8NCR0); assay: Screening of GalNAc transferase activity (acceptor substrate specificity, monosaccharide acceptors); conditions: 10 nmol acceptor, MES pH 6.5, MnCl2 10 mM, 37° C. 16 hours
T1 construct: made in house; host or cells: Sf21 insect cells (baculovirus, pFBIF-G34A)
T1 sequence (Q8NCR0 36-500): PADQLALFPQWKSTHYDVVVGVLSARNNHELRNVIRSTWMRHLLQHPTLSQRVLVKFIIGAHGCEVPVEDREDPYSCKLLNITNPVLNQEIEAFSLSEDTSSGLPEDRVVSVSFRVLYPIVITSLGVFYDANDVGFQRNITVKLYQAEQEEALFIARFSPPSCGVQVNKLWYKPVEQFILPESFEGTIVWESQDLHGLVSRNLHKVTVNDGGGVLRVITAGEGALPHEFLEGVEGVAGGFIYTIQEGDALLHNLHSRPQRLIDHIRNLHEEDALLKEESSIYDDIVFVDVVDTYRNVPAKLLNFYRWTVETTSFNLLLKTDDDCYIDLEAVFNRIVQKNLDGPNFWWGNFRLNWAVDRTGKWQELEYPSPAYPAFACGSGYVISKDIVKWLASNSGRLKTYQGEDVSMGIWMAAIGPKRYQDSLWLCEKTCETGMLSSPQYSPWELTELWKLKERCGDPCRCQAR
Text: The following reaction system was used for examining the G34 enzyme protein for its acceptor substrate specificity in its GalNAc transfer activity.
In the reaction solutions shown below, each of the following was used at 10 nmol as an acceptor substrate: pNp-α-Gal, oNp-β-Gal, Bz-α-GlcNAc, pNp-β-GlcNAc, Bz-α-GalNAc, pNp-β-GalNAc, pNp-α-Glc, pNp-β-Glc, pNp-β-GlcA, pNp-α-Fuc, pNp-α-Xyl, pNp-β-Xyl and pNp-α-Man (all purchased from SIGMA), wherein “Gal” represents a D-galactose residue, “Xyl” represents a D-xylose residue, “Fuc” represents a […] residue, “Man” represents a D-mannose residue and “GlcA” represents a glucuronic acid residue.
Each reaction solution was prepared as follows (final concentrations in parentheses): each substrate (10 nmol), MES (2-morpholinoethanesulfonic acid) (pH 6.5, 50 mM), MnCl2 (10 mM), Triton X-100 (trade name) (0.1%), UDP-GalNAc (2 mM) and UDP-[^14C]GlcNAc (40 nCi) were mixed and supplemented with 5 μl G34 enzyme solution, followed by dilution with H2O to a total volume of 20 μl (see Table 1).
The above reaction mixtures were each reacted at 37° C. for 16 hours. After completion of the reaction, 200 μl H2O was added and each mixture was lightly centrifuged to obtain the supernatant. […] The eluate was mixed with 5 ml liquid scintillator ACSII (Amersham Biosciences) and measured for the amount of radiation with a scintillation counter (Beckman Coulter).

human G34 protein [2] = molecular target: T1, human G34 protein; assay: Time course of G34 enzymatic activity with Bz-β-GlcNAc as acceptor
human G34 protein [3] = molecular target: T1, human G34 protein; assay: Optimum buffer and optimum pH for GalNAc transferase activity of G34; conditions: acceptor pNp-β-GlcNAc
Procedure: The following reaction system was used for examining the optimum buffer and pH for the GalNAc transferase activity of G34. The acceptor substrate used was pNp-β-GlcNAc.
Any one of the following buffers was used (final concentrations in parentheses): MES (2-morpholinoethanesulfonic acid) buffer (pH 5.5, 5.78, 6.0, 6.5 and 6.75, 50 mM), sodium cacodylate buffer (pH 5.0, 5.6, 6.0, 6.2, 6.6, 6.8, 7.0, 7.2, 7.4 and 7.5, 25 mM) and N-[2-hydroxyethyl]piperazine-N′-[2-ethanesulfonic acid](HEPES) buffer (pH 6.75, 7.00, 7.30, 7.40 and 7.50, 14 mM). The substrate (10 nmol), MnCl2 (10 mM), Triton CF-54 (trade name) (0.3%), UDP-GalNAc (2 mM) and […] (40 nCi) were mixed and supplemented with 5 μl G34 enzyme solution, followed by dilution with H2O to a total volume of 20 μl.
The above reaction mixtures were each reacted at 37° C. for 16 hours. After completion of the reaction, 200 μl H2O was added and each mixture was lightly centrifuged to obtain the supernatant. The supernatant was passed through a Sep-Pak plus C18 Cartridge (Waters), which had been washed once with 1 ml methanol and twice with 1 ml H2O and then equilibrated, to allow the substrate and product in the supernatant to adsorb to the cartridge. After washing the cartridge twice with 1 ml H2O, the adsorbed substrate and product were eluted with 1 ml methanol. The eluate was mixed with 5 ml liquid scintillator ACSII (Amersham Biosciences) and measured for the amount of radiation with a scintillation counter (Beckman Coulter).

[4] = sodium cacodylate buffer pH 5.0
[5] = sodium cacodylate buffer pH 5.6
[6] = sodium cacodylate buffer pH 6.0
[7] = sodium cacodylate buffer pH 6.2
[8] = sodium cacodylate buffer pH 6.6
[9] = sodium cacodylate buffer pH 6.8
[10] = sodium cacodylate buffer pH 7.0
[11] = sodium cacodylate buffer pH 7.2
[12] = sodium cacodylate buffer pH 7.4

Molecule: CC(=O)N[C@H]1[C@H](Oc2ccc([N+](=O)[O-])cc2)O[C@H](CO)[C@@H](O)[C@@H]1O [pNp-β-GlcNAc]
GalNAc transfer to acceptor substrate (human G34 protein [1]): ability to transfer GalNAc to pNp-β-GlcNAc

Area (%) (human G34 protein [2]; reaction time 1 hour): 0%
Area (%) (human G34 protein [2]; reaction time 2 hours): 2.388%
Area (%) (human G34 protein [2]; reaction time 4 hours): 6.195%
Area (%) (human G34 protein [2]; reaction time 16 hours): 13.719%
+ (amount of radiation) (human G34 protein [3]; HEPES buffer pH 6.75): 4894
HEPES (+ minus −) (human G34 protein [3]; HEPES buffer pH 6.75): 4745
+ (amount of radiation) (human G34 protein [3]; HEPES buffer pH 7.00): 4912
HEPES (+ minus −) (human G34 protein [3]; HEPES buffer pH 7.00): 4791
+ (amount of radiation) (human G34 protein [3]; HEPES buffer pH 7.30): 4294
HEPES (+ minus −) (human G34 protein [3]; HEPES buffer pH 7.30): 4167
+ (amount of radiation) (human G34 protein [3]; HEPES buffer pH 7.40): 6630
HEPES (+ minus −) (human G34 protein [3]; HEPES buffer pH 7.40): 6510
+ (amount of radiation) (human G34 protein [3]; HEPES buffer pH 7.50): 6895
HEPES (+ minus −) (human G34 protein [3]; HEPES buffer pH 7.50): 6655
+ (amount of radiation) (human G34 protein [3]; MES buffer pH 5.50): 3735
MES (+ minus −) (human G34 protein [3]; MES buffer pH 5.50): 3538
+ (amount of radiation) (human G34 protein [3]; MES buffer pH 5.78): 3755
MES (+ minus −) (human G34 protein [3]; MES buffer pH 5.78): 3571
+ (amount of radiation) (human G34 protein [3]; MES buffer pH 6.00): 2514
MES (+ minus −) (human G34 protein [3]; MES buffer pH 6.00): 2373
+ (amount of radiation) (human G34 protein [3]; MES buffer pH 6.50): 1981
MES (+ minus −) (human G34 protein [3]; MES buffer pH 6.50): 1247
+ (amount of radiation) (human G34 protein [3]; MES buffer pH 6.75): 3289
MES (+ minus −) (human G34 protein [3]; MES buffer pH 6.75): 3153
+ (amount of radiation) (human G34 protein [3]; [4]): 6042
+ (amount of radiation) (human G34 protein [3]; [5]): 3353
+ (amount of radiation) (human G34 protein [3]; [6]): 2689
+ (amount of radiation) (human G34 protein [3]; [7]): 907
+ (amount of radiation) (human G34 protein [3]; [8]): 1093
+ (amount of radiation) (human G34 protein [3]; [9]): 2488
+ (amount of radiation) (human G34 protein [3]; [10]): 4965
+ (amount of radiation) (human G34 protein [3]; [11]): 4377
+ (amount of radiation) (human G34 protein [3]; [12]): 4930
B1: G34: human β1,3-N-acetyl-D-galactosaminyltransferase protein (SEQ ID NO: 2), expressed FLAG-tagged from amino acid 36 to the C-terminal end (protein, listed as Homo sapiens)
chain: T1 sequence (Q8NCR0 36-500)
modifications: FLAG tag
Sodium cacodylate (+ minus −) (human G34 protein [3]; [4]): 5838
Sodium cacodylate (+ minus −) (human G34 protein [3]; [5]): 3194
Sodium cacodylate (+ minus −) (human G34 protein [3]; [6]): 2429
Sodium cacodylate (+ minus −) (human G34 protein [3]; [7]): 769
Sodium cacodylate (+ minus −) (human G34 protein [3]; [8]): 957
Sodium cacodylate (+ minus −) (human G34 protein [3]; [9]): 2230
Sodium cacodylate (+ minus −) (human G34 protein [3]; [10]): 4706
Sodium cacodylate (+ minus −) (human G34 protein [3]; [11]): 4068
Sodium cacodylate (+ minus −) (human G34 protein [3]; [12]): 4626

— patent US8431365B2, “β1,3-N-acetyl-D-galactosamine transferase protein, nucleic acid encoding the same and method of examining canceration using the same” (National Institute of Advanced Industrial Science and …, priority 2003, dated 2013)
